Experiments:
[1] = system: thrombus formation / platelet deposition; assay: Thrombus formation on collagen type I in stenosis channels (SRG versus constant shear); type: cell-based, human; conditions: for Thrombus formation: 15 minutes of blood flow
Text: (§1) In-house designed PDMS microfluidic chips (FIG. 1A) contained channels of 52 µm height with a footprint of 300 µm x 46 mm (used in FIG. 1) or 300 µm x 17 mm. Selected channels incorporated a semi-circular stenotic section of various lengths (600 µm, 1000 µm or 2000 µm diameter), creating 80% lumen reduction. Chips were manufactured as previously reported (Westein et al. Proceedings of the National Academy of Sciences of the United States of America. 2013 Jan 22;110(4):1357-62). The produced PDMS chips were sealed with cover slips by hydrophobic interaction and coated with collagen by perfusion of collagen solution followed by static incubation at RT for at least 1 hr. Channels were rinsed with PBS and blocked with 2% BSA. Wall shear rates of the input flow for these microchannels were approximated from volumetric flow rates by using the equation, γ = 6Q/wh2. Herein, γ is the wall shear rate (s^-1), Q the volumetric flow rate (mls^-1), w the channel with (cm) and h the channel height (cm).
Citrated whole blood was incubated with DiOC6 (0.5 µg ml^-1) (Sigma-Aldrich Co, St. Louis, MO, USA) and drawn through microfluidic channels by a programmable syringe pump (Legato 130, KD Scientific, USA). Time-lapse z-stack images of platelet deposition were captured in multiple track, resonant scanning mode, using a Nikon A1R confocal microscope system. Platelet deposition was recorded over time (2 frames per minute) for up to 20 minutes and quantified in ImageJ using a Z-projection of the acquired signal.

[2] = system: VWF-GPIbα bond strength (platelets rolling on VWF-collagen III); assay: Platelet rolling velocity on collagen III bound VWF in stenotic or straight microfluidic channels; type: cell-based, human; conditions: scFv A1
Text: as §1, with “Herein, γ is the wall shear rate (s^-1), Q the volumetric flow rate (mls^-1), w the channel with (cm) and h the channel height (cm).” left out
For experiments measuring rolling velocities, anti αllbβ3 antibody (abciximab; 20 µg ml^-1)-treated whole blood containing 0.5 µg ml^-1 DiOC6 was drawn over a collagen type III-coated surface. […] 10 second video clips of rolling platelets were recorded in the green fluorescent channel using an Olympus IX81 microscope system. Platelet rolling velocities were calculated using Diatrack v3.04 large scale particle tracking software (Vallotton et al. Microsc Microanal. 2013 Apr;19(2):451-60).

[3] = target: T1, denatured full length VWF (Homo sapiens, UniProt P04275); assay: Western blot of denatured VWF probed with scFv A1; type: binding; conditions: scFv A1 1 µg ml^-1; SDS-PAGE denatured VWF
T1 construct: Denatured full length VWF (Mybiosource, USA) was electrophoresed; purchased Mybiosource
Procedure: Denatured full length VWF (Mybiosource, USA) was electrophoresed at 0.1, 10, 100 ng and 1 µg using 5% SDS-Polyacrylamide gel at 125 V for 90 min. The protein was transferred onto PVDF membrane at 90V for 90 min followed by incubation with 1 µg ml^-1 scFv A1 overnight and the membrane was probed with horse-radish peroxidase (HRP)-conjugated detection antibody (1:2500, Sigma).
Later, the membrane was stripped and reprobed with 1 µg ml^-1 polyclonal sheep anti-VWF antibody (Abcam), followed by donkey anti-sheep HRP-conjugated secondary antibody (1:2500, R&D Systems, USA). Chemiluminescent detection of protein bands was done using ECL Western Blotting Substrate (ThermoFisher) and visualisation using a ChemiDoc Touch Imaging system (Bio-Rad, UK).

isolated VWF A1 domain = target: T2, isolated VWF A1 domain (Homo sapiens, UniProt P04275); assay: ELISA binding to isolated VWF A1 domain; conditions: scFv A1 5 µg ml^-1
T2 construct: coated with purified full length VWF or isolated A1 domain
Procedure: ELISA wells (Thermo Fisher Scientific) were coated with purified full length VWF or isolated A1 domain at 0.1, 1 and 10 µg ml^-1 in the presence of ristocetin (0.75 mg ml^1) and blocked with 2% BSA. Next, the coated wells were incubated with 5 µg ml^-1 of scFv A1 or sheep anti-VWF antibody followed by incubation with an HRP-conjugated secondary antibody (Anti-his HRP for scFv A1, Donkey anti-sheep HRP antibody for sheep anti-VWF antibody) (1:4,000). Readings were measured at 450 nm on a BMG Optima multi-well reader.

VWF = VWF (Homo sapiens, UniProt P04275); assay: VWF binding in the presence or absence of ristocetin (FIG. 7)
VWF-full length = target: T3, VWF-full length (Homo sapiens, UniProt P04275); assay: BLItz bio-layer interferometry, immobilized full length VWF; conditions: BLItz binding assay
T3 construct: coated with purified full length VWF or isolated A1 domain
Procedure: Bio-layer Interferometry was performed on a BIItz System (Pall Forte Bio, USA). Protein-A biosensors were hydrated for 30 minutes in PBS-Tween (0.05%) and loaded with VWF-A1 domain (130 µg ml^-1). Remaining binding sites were blocked by exposure to a polyclonal mouse IgG for 5 min. Sequential adhesion of scFv-A1 at 0, 20, 40 and 100 µg ml^-1 was monitored for 5 min per concentration. Real time visualisation of binding interactions between scFv A1 and full length VWF/A1 domain was performed using the BLItz Pro software. Traces were manually baseline aligned and corrected for control binding (0 µg ml^-1 scFv-A1).

B1: scFv A1: single chain antibody combining variable heavy chain of mAb CR1 with variable light chain of mAb CR2; VH SEQ ID NO: 11, VL SEQ ID NO: 10 (antibody, V domains shown)
VH: QVQLQQPGAELVRPGASVKLSCKASGYSFTNYWMSWVKQRPGQGLEWIGMIHPSDSDTRLNQKFKDKATLTVDKSSSTAYMQLSSPTSEDSAGLLLCKKFEGWLPVLLGPRHHSHSLLS
VL: DIELTQSPASLAVSLGQSYRASCKSVSTSGYSYMHWNQQKPGQPPRLLIYLVSNLESGVPARFSGSGSGTDFTLNIHPVEEEDAATYYCQHIRELTRSEGDQAEINR
modifications: scFv linker; Mouse
[1]; 2000 s^-1 constant shear
  Thrombus formation: no effect
[1]; SRGs (187-1,500 s^-1)
  Thrombus formation: inhibited thrombus formation
[1]; SRGs (300-2,000 s^-1)
  Thrombus formation: inhibited thrombus formation
[1]; scFv A1 2.5 µg ml^-1
  Inhibition of thrombus formation: absent
[1]; scFv A1 5 µg ml^-1
  Inhibition of thrombus formation: showed inhibition
[1]; scFv A1 5 µg ml^-1, SRG, 1,500 s^-1 in stenosis apex, control 1.58±0.22, p<0.001
  Relative thrombus growth (ratio of intensity in the last frame over the first frame): 1.2±0.09
[1]; scFv A1 5 µg ml^-1, SRG, 2,000 s^-1 in stenosis apex, control 1.85±0.28, p<0.0001
  Relative thrombus growth (ratio of intensity in the last frame over the first frame): 1.17±0.07
[1]; scFv A1 5 µg ml^-1, constant shear 1,500 s^-1, 10 minutes, other value of the pair 1.48±0.16
  Relative thrombus growth (ratio of intensity in the last frame over the first frame): 1.62±0.2
[1]; scFv A1 5 µg ml^-1, constant shear 2,000 s^-1, 10 minutes, other value of the pair 2.11±0.23
  Relative thrombus growth (ratio of intensity in the last frame over the first frame): 1.9±0.36
[1]; scFv A1 5 µg ml^-1, constant shear, straight channel sections
  Effect on platelet deposition: no effect
[1]; scFv A1 10 µg ml^-1
  Inhibition of thrombus formation: showed inhibition
[2]; areas other than the stenosis apex
  Effect on platelet rolling velocities: largely unaffected
[2]; stenosis apex, control 4.41±0.1, p=0.038
  Platelet rolling velocity: 4.6±0.1 µm s^-1
[3]
  Complex formation with denatured VWF: did not show any complex formation
Isolated VWF A1 domain
  Binding to isolated VWF A1 domain: did not bind
VWF
  Mechanism of VWF binding (dependence on conformation): conformational-dependent binding
VWF-full length
  Binding to immobilized VWF-full length: did not observe any binding
